Experimental data from article PMC8079415 (2021).

Molecular target: full-length human Bcl-2 protein (human, UniProt P10415 1-239)
Assay: NMR; 5 mM DPC micelles, pH 6.0, 310 K

Sequence of full-length human Bcl-2 protein (P10415 other isoform, or with tags, fused parts or gaps): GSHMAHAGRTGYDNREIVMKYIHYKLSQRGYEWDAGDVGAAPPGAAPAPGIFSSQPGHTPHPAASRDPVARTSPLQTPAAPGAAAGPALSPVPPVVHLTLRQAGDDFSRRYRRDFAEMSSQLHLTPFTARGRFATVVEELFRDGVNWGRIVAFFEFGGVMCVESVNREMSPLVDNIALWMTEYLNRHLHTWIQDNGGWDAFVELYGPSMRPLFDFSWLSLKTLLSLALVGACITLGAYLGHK

**Q.** With Ac-QPPQDASTKKLSECLRRIGDELDSNMELQRMIADVD-NH2 [36-mer Bax-BH3 peptide from Mus musculus] as the binder, how does the Kd read?
**A.** 143 µM
